Results taken from patent US20210052630A1, “Methods and Compositions for Preventing or Treating Heart Disease” (Macau University of Science and Technology, priority 2019, published 2021).

Tests used:
Type in all cases: cell-based, Rat
[1] = system: H9C2 cells; experiment: MTT cell viability assay, H9C2 cells exposed to hypoxia/reoxygenation (H/R) injury; conditions: for cell viability (growth and proliferation of cardiomyocytes) under hypoxia/reoxygenation: 50 nM RNA, vs H/R group, FIG. 3B; for cardioprotective effect (cell viability), concentration series: 100, 50, 25, 12.5 nM, FIG. 4A/4B
Experimental: (§1) H9C2 cell lines were cultured in Dulbecco's Modified Eagle Medium (DMEM) containing 10% FBS and 1% penicillin/streptomycin at humidified atmosphere containing 5% CO2 at 37° C.
In the cell viability assay or mitochondrial viability assay, exponentially growing cells of H9C2 cell line were plated in 96-well microplate at a density of 5000 cells per well in 100 μL of culture medium and allowed to adhere for 24 h before treatment. For hypoxia, hypoxic treatment was achieved by exposing cells to KRB buffer (composition in: NaCl 115 mM, KCl 4.7 mM, CaCl2 2.5 mM, KH2PO4 1.2 mM, MgSO4 1.2 mM, NaHCO3 24 mM, HEPES 10 mM; pH 7.4) at 37° C. for 3 hr in an oxygen-free hypoxic chamber (Stem Cell Technologies, United States), serial concentrations of RNA molecules obtained in Example 1 were then added to the cells […]. For hypoxia/reoxygenation (H/R), Hypoxic treatment was achieved by exposing cells in glucose-free DMEM under conditions of 94.9% N2/5% CO2/0.1% O2 for 12 hr at a hypoxystation (whitley H35 hypoxystation, Don Whitley Scientific Ltd., England), serial concentrations of RNA molecules obtained in Example 1 and 2 were then added to the cells and reoxygenation by incubating in the normoxic condition (95% air/5% CO2) at 37° C. for 6 hr. After hypoxia or hypoxia/reoxygenation, MTT solution (100 μL per well, 0.5 mg/mL solution) or mitochondrial viability stain solution (follow the manufacture's instruction) was added to each well and incubated for 4 h at 37° C. Subsequently, for cell viability assay, 150 μL dimethyl sulfoxide (DMSO) were added and the optical densities of the resulting solutions were calorimetrically determined at 570 nm using a SpectraMax Paradigm multi-mode microplate reader (Molecular Devices, Sunnyvale, Calif., U.S.A). For mitochondrial viability assay, fluorescence detected at 550 nm excitation and 590 nm emission using SpectraMax Paradigm multi-mode microplate reader. Dose-response curves were obtained and calculated by GraphPad Prism 6 (GraphPad, La Jolla, Calif., USA). Each experiment was carried out for three times and expressed as means±standard deviation.

[2] = system: H9C2 cell cytoskeleton; experiment: Cytoskeleton imaging (Rhodamine Phalloidin/DAPI, confocal) of H9C2 cells after H/R injury; conditions: 900, 300, 100, 30, 10, 3, 0.3 nM, FIG. 8A/8B
Experimental: H9C2 cells were plated in p-slide 8 well plate (Ibidi GmbH, Germany) at a density of 10000 cells per well in 200 μL of culture medium and allowed to adhere for 24 h before treatment. Hypoxic treatment was achieved by exposing cells in glucose-free DMEM under conditions of 94.9% N2/5% CO2/0.1% O2 for 12 hr at a hypoxystation (whitley H35 hypoxystation, Don Whitley Scientific Ltd., England), serial concentrations of RNA molecules obtained in Example 2 were then added to the cells and reoxygenation by incubating in the normoxic condition (95% air/5% CO2) at 37° C. for 6 hr. After hypoxia/reoxygenation, cells were stained with Rhodamine Phalloidin and DAPI following the manufacturer's instruction. Images were acquired on a Leica TCS SP8 Confocal Microscopy with a 20× objective.

[3] = system: H9C2 cells; experiment: MTT cell viability assay, H9C2 cells under H/R injury, RNA transfected with DharmaFECT4; conditions: 300, 100, 30 nM, vs H/R+DharmaFECT4 group, FIG. 11A/11B
Experimental: FIG. 11A is a bar chart showing the cell viability of H9C2 cells exposed to hypoxia/reoxygenation (H/R) injury after treatment with RNA molecule HC50 at different concentrations, i.e. 300 nM, 100 nM and 30 nM, by transfected with DharmaFECT4 transfection reagent, compared to a control group, a H/R along with DharmaFECT4 treated group in accordance with an example embodiment (mean±SD n=3; **, p<0.01, vs. vehicle H/R+ DharmaFECT4; ####, p<0.0001 vs. vehicle control). […]
(§2) In the cell viability assay or mitochondrial viability assay, exponentially growing cells of H9C2 cell line were plated in 96-well microplate at a density of 5000 cells per well in 100 μL of culture medium and allowed to adhere for 24 h before treatment. […] Subsequently, for cell viability assay, 150 μL dimethyl sulfoxide (DMSO) were added and the optical densities of the resulting solutions were calorimetrically determined at 570 nm using a SpectraMax Paradigm multi-mode microplate reader (Molecular Devices, Sunnyvale, Calif., U.S.A). For mitochondrial viability assay, fluorescence detected at 550 nm excitation and 590 nm emission using SpectraMax Paradigm multi-mode microplate reader. Dose-response curves were obtained and calculated by GraphPad Prism 6 (GraphPad, La Jolla, Calif., USA). Each experiment was carried out for three times and expressed as means±standard deviation.

[4] = system: H9C2 cells; experiment: Mitochondrial viability assay, H9C2 cells exposed to hypoxia/reoxygenation (H/R) injury; conditions: 300, 100, 30, 3 nM (FIG. 7A/7B)
Experimental: as §1, §2

[5] = system: H9C2 cell line; experiment: MTT cell viability assay, H9C2 cells exposed to hypoxia injury; conditions: 300 nM RNA, H9C2, hypoxia 3 hr, vs hypoxia group, FIG. 3A

Row | Molecule | cell viability (growth and proliferation of cardiomyocytes) under hypoxia/reoxygenation ([1]; H9C2, H/R) | cardioprotective effect (cell viability), concentration series ([1]; H9C2, H/R) | cell viability (growth and proliferation of cardiomyocytes) under hypoxia [5] | also measured
1 | HC50: double-stranded RNA, sense SEQ ID NO: 2 and antisense SEQ ID NO: 234, 19 base pairs (sense GCGGAUGUAGCCAAGUGGA; antisense UCCACUUGGCUACAUCCGC; cholesterol-conjugated double-stranded RNA, conjugate position not given here) |  |  |  | cell viability (growth and proliferation of cardiomyocytes), screen of synthesized RNA molecules ([1]; 300 nM, H9C2, H/R, FIG. 5A/5B): effective in promoting the growth and proliferation of cardiomyocytes; cell viability, protective effect against H/R injury, concentration series ([1]; 900, 300, 30, 3, 0.3 nM, H9C2, FIG. 6A/6B): dose-dependent protective effect against hypoxia/reoxygenation (H/R) injury; protective effect on cytoskeleton destruction [2]: significantly relieve cytoskeleton destruction of H9C2 cells caused by hypoxia/reoxygenation (H/R) injury in a dose-dependent manner; cell viability (growth and proliferation of cardiomyocytes), transfected with DharmaFECT4 [3]: promoted the growth and proliferation of cardiomyocytes against hypoxia/reoxygenation (H/R) injury in a dose-dependent manner; mitochondrial viability, protective effect against H/R injury, concentration series [4]: dose-dependent protective effect against hypoxia/reoxygenation (H/R) injury
2 | GCGGAUAUAGUCGAAUGGUAAAAUUUCUCUUUGCCAAGGAGAAGACGCGGGUUCGAUUCCCGCUAUCCGCCCCA (nucleic acid, expressed or natural sequence, tRNA isolated from Panax ginseng C; A. Mey; 74 mer) GCGGAUAUAGUCGAAUGGUAAAAUUUCUCUUUGCCAAGGAGAAGACGCGGGUUCGAUUCCCGCUAUCCGCCCCA | capable to promote the growth and proliferation of cardiomyocytes | significant cardioprotective effects in a dose-dependent manner | capable to promote the growth and proliferation of cardiomyocytes | 
3 | GCGGAUGUAGCCAAGUGGAUCAAGGCAGUGGAUUGUGAAUCCACCAUGCGCGGGUUCAAUUCCCGUCGUUCGCCCCA (nucleic acid, expressed or natural sequence, tRNA isolated from Panax ginseng C; A. Mey; 77 mer) GCGGAUGUAGCCAAGUGGAUCAAGGCAGUGGAUUGUGAAUCCACCAUGCGCGGGUUCAAUUCCCGUCGUUCGCCCCA | capable to promote the growth and proliferation of cardiomyocytes | significant cardioprotective effects in a dose-dependent manner |  | 
4 | CGCGGAGUAGAGCAGUUUGGUAGCUCGCAAGGCUCAUAACCUUGAGGUCACGGGUUCAAAUCCUGUCUCCGCAACCA (nucleic acid, expressed or natural sequence, tRNA isolated from Panax ginseng C; A. Mey; 77 mer) CGCGGAGUAGAGCAGUUUGGUAGCUCGCAAGGCUCAUAACCUUGAGGUCACGGGUUCAAAUCCUGUCUCCGCAACCA |  |  | capable to promote the growth and proliferation of cardiomyocytes | 
